According to publication PMC5549741, “Engineering double-stranded RNA binding activity into the Drosha double-stranded RNA binding domain results in a loss of microRNA processing function”:

T1: Drosha-Quad dsRBD (human, UniProt Q9NRR4 1259-1337, K1262I;I1317K;Q1318K;E1321K)
T1 sequence: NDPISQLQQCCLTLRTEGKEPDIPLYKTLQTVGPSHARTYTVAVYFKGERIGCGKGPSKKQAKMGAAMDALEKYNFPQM

B1: pri-mir-16-1 (structured_RNA)
RNA: GGGUGAUAGCAAUGUCAGCAGUGCCUUAGCAGCACGUAAAUAUUGGCGUUAAGAUUCUAAAAUUAUCUCCAGUAUUAACUGUGCUGCUGAAGUAAGGUUGACCAUACUCUAC
B2: ds44 (dsRNA)
RNA 1: GGUCAGCAGUGCCUUAGCAGCACGUAAAUAUUGGCGUUAAGACC
RNA 2: GGUCUUAACGCCAAUAUUUACGUGCUGCUAAGGCACUGCUGACC
B3: ds22 (dsRNA)
RNA 1: GUCAGCAGUGCCUUAGCAGCAC
RNA 2: GUGCUGCUAAGGCACUGCUGAC
B4: ds33 (dsRNA)
RNA 1: GGUCAGCAGUGCCUUAGCAGCACGUAAAUAUGG
RNA 2: CCAUAUUUACGUGCUGCUAAGGCACUGCUGACC

Biological target: T1, Drosha-Quad dsRBD
Experiment: EMSA; 50 mM sodium cacodylate pH 6.0, 50 mM KCl, 5% glycerol, 1 mM DTT, 0.1 mg/mL BSA, 0.1 mg/mL herring sperm DNA, 30 min at room temperature; 10% native gel at 4 C; Hill fit
Details: protein: recombinant, tags: pET-47b(+) vector
[1] = label: 5'-32P top strand, blunt

| Binder | Kd (label: 32P (5' end implied), hairpin, stem region contains 39 bp) [µM] | Kd [1] [µM] |
| --- | --- | --- |
| B1 | 2.8 ± 0.1 | – |
| B2 | – | 6.5 ± 0.6 |
| B3 | – | 13.4 ± 0.4 |
| B4 | – | 7.8 ± 0.2 |
